Values quoted from earlier work as cited in PMC9871243.

Tests used:
[1] = system: Influenza A virus hemagglutinin (cited work) (Influenza A virus); settings: modifications in the cited assays not stated, PBS, pH and binding temperature not stated
[2] = system: Influenza A virus virion (cited work), hemagglutinin (Influenza A virus); settings: modifications in the cited assays not stated, PBS, pH and binding temperature not stated

## TTGGGTTATTTTGGGAGGGCGGGGGTT [RHA0385 (as in cited works)]
[1]
  Kd: 0.6 nM
[2]
  Kd: 0.0011 nM
